Where no end group is shown, it is not given here.
Assays:
[1] = substrate: CC(C)[C@H](NC[C@@]1(O)OC[C@@H](O)[C@@H](O)[C@@H]1O)C(=O)O; test: glucosone release, o-phenylenediamine, A322, Lineweaver-Burk fit; assay type: biochemical, Parastagonospora nodorum; conditions: 20 mM Tris HCl pH 7.4, 25 °C, 20 mM o-phenylenediamine, substrate 0.05-10 mM
Text: glucosone release, o-phenylenediamine, A322, Lineweaver-Burk fit on PnFPOX (WT)

[2] = target: Phaeosphaeria nodorum fructosyl peptide oxidase (PnFPOX), wild type (Phaeosphaeria nodorum)
[3] = target: X02C variant of PnFPOX (derived from L3-35A through X02A) (Phaeosphaeria nodorum)

Binder	Km [1]	Vmax [1]	kcat [1]	kcat/Km [1]	Km for F6P in the enzymatic activity assay (glucosone release at 322 nm, F6P 0.05 to 1 mM, Lineweaver-Burk fit) [2]	Km for F6P in the enzymatic activity assay (glucosone release at 322 nm, F6P 0.05 to 1 mM, Lineweaver-Burk fit) [3]
PnFPOX (WT) (Parastagonospora nodorum SN15) (protein, C-terminal 6His tag (kept), recombinant in E. coli BL21 Star (DE3); pET15b or pET17b; FAD enzyme) MAPSRANTSVIVVGGGGTIGSSTALHLVRSGYTPSNVTVLDAYPIPSSQSAGNDLNKIMGVSLRNPVDLQLALEARQMWNEDELFKKFFHNTGRLDCAHGEKDIADLKSGYQALVDAGLDATNEWLDSEDEILKRMPLLSRDQIKGWKAIFSKDGGWLAAAKAINAVGEYLRDQGVRFGFYGAGSFKAPLLAEGVCIGVETVDGTRYYADKVVLAAGAWSPTLVELHEQCVSKAWVYGHIQLTPEEAARYKNSPVVYNGDVGFFFEPNEHGVIKVCDEFPGFTRFKMHQPFGAKAPKRISVPRSHAKHPTDTIPDASDVSIRRAIATFMPQFKNKKMFNQAMCWCTDTADAALLICEHPEWKNFVLATGDSGHSFKLLPNIGKHVVELLEGTLADDLAHAWRWRPGSGDALKSRRSAPAKDLADMPGWNHDKPRANL	5930 ± 1610 µM	41700 µM/min	99.3 ± 19.9 s⁻¹	16800 M⁻¹ s⁻¹		
{1‑deoxyfructosyl}-VHLTPE [fructosyl-Val-His-Leu-Thr-Pro-Glu hexapeptide (F6P)]					810 µM	30 µM

— paper PMC10616090, “Tailoring FPOX enzymes for enhanced stability and expanded substrate recognition” (Scientific Reports, 2023)
